Columns and labels:
SAMHD1 HD domain WT [1] = biological target: T1, SAMHD1 HD domain WT (UniProt Q9Y3Z3 114-626); assay: fluorescence anisotropy; FA: 50 mM Tris pH 8, 100 mM NaCl, 5 mM MgCl2, 1 mM TCEP, 50 nM 6FAM-oligo (salt series with KCl 50-150 mM); SEC same buffer; NMR: 50 mM Tris pH 7.5, 150 mM NaCl, 5 mM MgCl2, 10% D2O; temperature not stated; conditions: protein: recombinant; chain copies: 2; label: 5'-6FAM; single strand
SAMHD1 HD domain WT [2] = biological target: T1, SAMHD1 HD domain WT; assay: X-ray crystallography; FA: 50 mM Tris pH 8, 100 mM NaCl, 5 mM MgCl2, 1 mM TCEP, 50 nM 6FAM-oligo (salt series with KCl 50-150 mM); SEC same buffer; NMR: 50 mM Tris pH 7.5, 150 mM NaCl, 5 mM MgCl2, 10% D2O; temperature not stated; conditions: protein: recombinant; chain copies: 2; single strand
SAMHD1 HD domain WT [3] = biological target: T1, SAMHD1 HD domain WT; assay: fluorescence anisotropy; FA: 50 mM Tris pH 8, 100 mM NaCl, 5 mM MgCl2, 1 mM TCEP, 50 nM 6FAM-oligo (salt series with KCl 50-150 mM); SEC same buffer; NMR: 50 mM Tris pH 7.5, 150 mM NaCl, 5 mM MgCl2, 10% D2O; temperature not stated; conditions: protein: recombinant; chain copies: 2; label: 5'-6FAM; single strand; remark: listed apart in the source
SAMHD1 HD domain WT [4] = biological target: T1, SAMHD1 HD domain WT; assay: fluorescence anisotropy; tolerant to increasing salt (from 50 mM KCl); FA: 50 mM Tris pH 8, 100 mM NaCl, 5 mM MgCl2, 1 mM TCEP, 50 nM 6FAM-oligo (salt series with KCl 50-150 mM); SEC same buffer; NMR: 50 mM Tris pH 7.5, 150 mM NaCl, 5 mM MgCl2, 10% D2O; temperature not stated; conditions: protein: recombinant; chain copies: 2; label: 5'-6FAM; single strand
SAMHD1 HD domain WT [5] = biological target: T1, SAMHD1 HD domain WT; assay: fluorescence anisotropy; no significant difference from d(TG*TTCA); FA: 50 mM Tris pH 8, 100 mM NaCl, 5 mM MgCl2, 1 mM TCEP, 50 nM 6FAM-oligo (salt series with KCl 50-150 mM); SEC same buffer; NMR: 50 mM Tris pH 7.5, 150 mM NaCl, 5 mM MgCl2, 10% D2O; temperature not stated; conditions: protein: recombinant; chain copies: 2; label: 5'-6FAM; single strand
SAMHD1 D311A = SAMHD1 D311A (UniProt Q9Y3Z3 114-626, D311A); assay: analytical ultracentrifugation; no nucleotides; dimer, S ~6; FA: 50 mM Tris pH 8, 100 mM NaCl, 5 mM MgCl2, 1 mM TCEP, 50 nM 6FAM-oligo (salt series with KCl 50-150 mM); SEC same buffer; NMR: 50 mM Tris pH 7.5, 150 mM NaCl, 5 mM MgCl2, 10% D2O; temperature not stated; conditions: protein: recombinant; chain copies: 2; label: 5'-6FAM; single strand
SAMHD1 K523A = SAMHD1 K523A (UniProt Q9Y3Z3 114-626, K523A); assay: size-exclusion chromatography; 50 uM GTP + 50 uM dTTP; 2-fold higher stoichiometry than D311A; FA: 50 mM Tris pH 8, 100 mM NaCl, 5 mM MgCl2, 1 mM TCEP, 50 nM 6FAM-oligo (salt series with KCl 50-150 mM); SEC same buffer; NMR: 50 mM Tris pH 7.5, 150 mM NaCl, 5 mM MgCl2, 10% D2O; temperature not stated; conditions: protein: recombinant; chain copies: 2; label: 5'-6FAM; single strand
SAMHD1 R352A = SAMHD1 R352A (UniProt Q9Y3Z3 114-626, R352A); assay: as above; conditions: protein: recombinant; chain copies: 2; label: 5'-6FAM; single strand
Chain of SAMHD1 R352A (Q9Y3Z3 114-626 R352A): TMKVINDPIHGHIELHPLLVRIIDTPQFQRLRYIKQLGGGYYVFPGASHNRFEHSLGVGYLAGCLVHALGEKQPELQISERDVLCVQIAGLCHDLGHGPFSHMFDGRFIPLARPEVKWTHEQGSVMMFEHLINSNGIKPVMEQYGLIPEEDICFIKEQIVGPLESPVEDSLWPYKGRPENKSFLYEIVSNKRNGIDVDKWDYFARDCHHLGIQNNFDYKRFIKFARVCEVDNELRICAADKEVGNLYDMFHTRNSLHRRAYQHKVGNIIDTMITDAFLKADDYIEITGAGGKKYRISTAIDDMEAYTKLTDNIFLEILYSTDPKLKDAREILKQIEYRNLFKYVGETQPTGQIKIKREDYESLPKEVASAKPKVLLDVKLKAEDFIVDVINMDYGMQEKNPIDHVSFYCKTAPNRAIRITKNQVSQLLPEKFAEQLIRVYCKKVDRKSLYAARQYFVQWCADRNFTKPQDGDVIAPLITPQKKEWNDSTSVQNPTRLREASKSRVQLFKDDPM

T1 sequence (Q9Y3Z3 114-626): as the sequence (Q9Y3Z3 114-626 R352A) above, with A239R counted along it
Chain of SAMHD1 K523A (Q9Y3Z3 114-626 K523A): as the sequence (Q9Y3Z3 114-626 R352A) above, with A239R, K410A counted along it
Chain of SAMHD1 D311A (Q9Y3Z3 114-626 D311A): as the sequence (Q9Y3Z3 114-626 R352A) above, with D198A, A239R counted along it

CTCCT (ssDNA, phosphorothioate?) [6FAM oligo with G replaced by T]
binding result (SAMHD1 HD domain WT [1]): no binding

CGCCT (ssDNA, phosphorothioate at linkages 1-4, mixed Rp/Sp) [d(C*G*C*C*T)]
binding result (SAMHD1 HD domain WT [2]): binds

TGTTCA (ssDNA, phosphorothioate after G2, pure Rp) [6FAM-d(TG*TTCA) Rp]
binding signal (SAMHD1 HD domain WT [3]): ~10 fold higher affinity than Sp

CACCT (ssDNA, phosphorothioate?) [6FAM oligo with G replaced by A]
binding result (SAMHD1 HD domain WT [1]): no binding

CGCCU (ssRNA, phosphorothioate at linkages 1-4, mixed Rp/Sp) [6FAM-r(C*G*C*C*U)]
binding result (SAMHD1 HD domain WT [4]): binds

TGTTCA (ssDNA, phosphorothioate after G2, pure Sp) [6FAM-d(TG*TTCA) Sp]
binding signal (SAMHD1 HD domain WT [3]): ~0.1 affinity relative to Rp

UGUUCA (ssRNA, phosphorothioate after G2, mixed Rp/Sp) [6FAM-r(UG*UUCA)]
binding result (SAMHD1 HD domain WT [5]): binds

CGCCT (ssDNA, phosphorothioate at linkages 1-4, mixed Rp/Sp) [6FAM-d(C*G*C*C*T)]
binding result (SAMHD1 D311A): binds
binding result (SAMHD1 K523A): binds
binding result (SAMHD1 R352A): binds
binding result (SAMHD1 HD domain WT [4]): binds

CGCCU (ssRNA) [r(CGCCU)]
binding result (SAMHD1 HD domain WT [2]): binds
